Reference: publication PMC8061694, “Ectopic positioning of the cell division plane is associated with single amino acid substitutions in the FtsZ-recruiting SsgB in Streptomyces” (Open Biology, 2021)

B1: Streptomyces coelicolor FtsZ, C-terminal His-tag fusion (natural protein, UniProt P45500 1-399, looked up)
chain: MAAPQNYLAVIKVIGVGGGGVNAINRMIEVGLKGVEFIAINTDAQALLMSDADVKLDVGRELTRGLGAGANPAVGRKAAEDHREEIEEVLKGADMVFVTAGEGGGTGTGGAPVVANIARSLGALTIGVVTRPFTFEGRRRANQAEDGIAELREEVDTLIVIPNDRLLSISDRQVSVLDAFKSADQVLLSGVQGITDLITTPGLINLDFADVKSVMSEAGSALMGIGSARGDDRAVAAAEMAISSPLLEASIDGARGVLLSISGGSDLGLFEINEAAQLVSEAAHPEANIIFGAVIDDALGDEVRVTVIAAGFDGGQPPSKRDNVLGSSSAKREEPTPARPSESRPSFGSLGSVKPKEEPEPAPVPEPVADLPVSPPPVPPSRTYSDSAAEELDVPDFLK
notes: FtsZ of Streptomyces coelicolor, codon-optimised ftsZ cloned into pET28a; Forms polymers with GTP; source: E. coli Rosetta 2 (DE3) pLysS, purified

Legend:
[1] = molecular target: Streptomyces coelicolor SsgB, wild type, His6-tagged (Streptomyces coelicolor) (UniProt Q9L268); assay: crystal structure; tetragonal crystals, sitting-drop vapour diffusion at 18°C; 0.2 M sodium chloride, 0.1 M sodium/potassium phosphate pH 6.2, 50% PEG200; 2.1 Å; eight molecules per asymmetric unit
[2] = molecular target: B1; assay: co-sedimentation; co-pelleting assay: purified FtsZ with or without equimolar SsgB or its mutants, 15 µM final; pre-spun 50 k r.p.m. 30 min; 2 mM MgCl2 and GTP added, 10 min at 30°C; centrifuged 65 k r.p.m. at 20°C for 30 min; supernatants and pellets on SDS-PAGE; settings: both partners purified
[3] = molecular target: the molecule itself; assay: as above

Binder	stoichiometry N [1]	binding result [2]	binding result [3]
Streptomyces coelicolor SsgB, wild type, His6-tagged (natural protein, UniProt Q9L268 1-137, looked up, SsgB of Streptomyces coelicolor, entire coding region, 137 aa native polypeptide; expressed from pET28a as a 157 aa fusion protein; Trimer in the crystal, mainly monomer by SEC; The last 13 residues are not modelled in the structure; also called ScSsgB; wild-type SsgB; source: E. coli Rosetta 2 (DE3) pLysS, purified) MNTTVSCELHLRLVVSSESSLPVPAGLRYDTADPYAVHATFHTGAEETVEWVFARDLLAEGLHRPTGTGDVRVWPSRSHGQGVVCIALSSPEGEALLEAPARALESFLKRTDAAVPPGTEHRHFDLDQELSHILAES	3	binds	–
SsgB E120A, His6-tagged (natural protein, Streptomyces coelicolor, UniProt Q9L268 1-137, looked up, SsgB of Streptomyces coelicolor, entire coding region (137 aa), point mutant E120A, expressed in the same way as wild type; also called SsgB variant E120A; source: E. coli Rosetta 2 (DE3) pLysS, purified) MNTTVSCELHLRLVVSSESSLPVPAGLRYDTADPYAVHATFHTGAEETVEWVFARDLLAEGLHRPTGTGDVRVWPSRSHGQGVVCIALSSPEGEALLEAPARALESFLKRTDAAVPPGTAHRHFDLDQELSHILAES	–	binds	–
SsgB-E120G, His6-tagged (natural protein, Streptomyces coelicolor, UniProt Q9L268 1-137, looked up, SsgB of Streptomyces coelicolor, entire coding region (137 aa), point mutant E120G, expressed in the same way as wild type; also called SsgB variant E120G; source: E. coli Rosetta 2 (DE3) pLysS, purified) MNTTVSCELHLRLVVSSESSLPVPAGLRYDTADPYAVHATFHTGAEETVEWVFARDLLAEGLHRPTGTGDVRVWPSRSHGQGVVCIALSSPEGEALLEAPARALESFLKRTDAAVPPGTGHRHFDLDQELSHILAES	–	binds	–
B1	–	–	binds
